According to patent US20150344570A1 (published 2015):

T1: FcγRIIb extracellular domain with C-terminal His tag (human, UniProt P31994 43-217)
T1 construct: extracellular domain; also called FcgRIIb; 2b; not shown: His tag attached to the C terminus
T1 sequence (looked up): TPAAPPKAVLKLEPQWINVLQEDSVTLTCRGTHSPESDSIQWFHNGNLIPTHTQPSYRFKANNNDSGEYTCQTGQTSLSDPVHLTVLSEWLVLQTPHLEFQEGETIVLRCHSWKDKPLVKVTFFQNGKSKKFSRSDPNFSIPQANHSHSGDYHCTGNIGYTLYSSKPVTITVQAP

B1: GpH7-A5/GpH7-B3 variant L328_20W/GpL16-k0 (He Ab) (antibody, human IgG1, kappa)
heavy 1: not shown
heavy 2: not shown
light: DIVMTQSPLSLPVTPGEPASISCQASESLVHSNRNTYLHWYLQKPGQSPQLLIYKVSNRFSGVPDRFSGSGSGTDFTLKISRVEAEDVGVYYCSQNTHVPPTFGQGTKVEIERTVAAPSVFIFPPSDEQLKSGTASVVCLLNNFYPREAKVQWKVDNALQSGNSQESVTEQDSKDSTYSLSSTLTLSKADYEKHKVYACEVTHQGLSSPVTKSFNRGEC
notes: Heterodimerized antibody with the alteration in one H chain only
B2: GpH7-A5/GpH7-B3 variant L328_15Y/GpL16-k0 (He Ab) (antibody, human IgG1, kappa)
heavy 1: not shown
heavy 2: not shown
light: B1 light
notes: as for B1
B3: GpH7-A5/GpH7-B3 variant L328_09D/GpL16-k0 (He Ab) (antibody, human IgG1, kappa)
heavy 1: not shown
heavy 2: not shown
light: B1 light
notes: as for B1
B4: GpH7-A5/GpH7-B3 variant L328_16H/GpL16-k0 (He Ab) (antibody, human IgG1, kappa)
heavy 1: not shown
heavy 2: not shown
light: B1 light
notes: as for B1
B5: GpH7-A5/GpH7-B3 variant L328_18N/GpL16-k0 (He Ab) (antibody, human IgG1, kappa)
heavy 1: not shown
heavy 2: not shown
light: B1 light
notes: as for B1
B6: GpH7-A5/GpH7-B3 variant P331_15Y/GpL16-k0 (He Ab) (antibody, human IgG1, kappa)
heavy 1: not shown
heavy 2: not shown
light: B1 light
notes: as for B1
B7: GpH7-A5/GpH7-B3 variant P329_20W/GpL16-k0 (He Ab) (antibody, human IgG1, kappa)
heavy 1: not shown
heavy 2: not shown
light: B1 light
notes: as for B1
B8: GpH7-A5/GpH7-B3 variant P331_11K/GpL16-k0 (He Ab) (antibody, human IgG1, kappa)
heavy 1: not shown
heavy 2: not shown
light: B1 light
notes: as for B1
B9: GpH7-A5/GpH7-B3 variant L328_07I/GpL16-k0 (He Ab) (antibody, human IgG1, kappa)
heavy 1: not shown
heavy 2: not shown
light: B1 light
notes: as for B1
B10: GpH7-A5/GpH7-B3 variant P331_20W/GpL16-k0 (He Ab) (antibody, human IgG1, kappa)
heavy 1: not shown
heavy 2: not shown
light: B1 light
notes: as for B1
B11: GpH7-A5/GpH7-B3 variant L328_14T/GpL16-k0 (He Ab) (antibody, human IgG1, kappa)
heavy 1: not shown
heavy 2: not shown
light: B1 light
notes: as for B1
B12: GpH7-A5/GpH7-B3 variant L328_19Q/GpL16-k0 (He Ab) (antibody, human IgG1, kappa)
heavy 1: not shown
heavy 2: not shown
light: B1 light
notes: as for B1
B13: GpH7-A5/GpH7-B3 variant L328_13S/GpL16-k0 (He Ab) (antibody, human IgG1, kappa)
heavy 1: not shown
heavy 2: not shown
light: B1 light
notes: as for B1
B14: GpH7-A5/GpH7-B3 variant P331_06M/GpL16-k0 (He Ab) (antibody, human IgG1, kappa)
heavy 1: not shown
heavy 2: not shown
light: B1 light
notes: as for B1
B15: GpH7-A5/GpH7-B3 variant P331_04F/GpL16-k0 (He Ab) (antibody, human IgG1, kappa)
heavy 1: not shown
heavy 2: not shown
light: B1 light
notes: as for B1
B16: GpH7-A5/GpH7-B3 variant P331_14T/GpL16-k0 (He Ab) (antibody, human IgG1, kappa)
heavy 1: not shown
heavy 2: not shown
light: B1 light
notes: as for B1
B17: GpH7-A5/GpH7-B3 variant P331_08L/GpL16-k0 (He Ab) (antibody, human IgG1, kappa)
heavy 1: not shown
heavy 2: not shown
light: B1 light
notes: as for B1
B18: GpH7-A5/GpH7-B3 variant P331_18N/GpL16-k0 (He Ab) (antibody, human IgG1, kappa)
heavy 1: not shown
heavy 2: not shown
light: B1 light
notes: as for B1
B19: GpH7-A5/GpH7-B3 variant P331_07I/GpL16-k0 (He Ab) (antibody, human IgG1, kappa)
heavy 1: not shown
heavy 2: not shown
light: B1 light
notes: as for B1
B20: GpH7-A5/GpH7-B3 variant P331_10E/GpL16-k0 (He Ab) (antibody, human IgG1, kappa)
heavy 1: not shown
heavy 2: not shown
light: B1 light
notes: as for B1

The binders below were run against T1, FcγRIIb extracellular domain with … (assay: SPR (Biacore), antibody captured on antigen peptide chip, FcγR as analyte; relative binding).
Experimental: (§1) The heterodimerized antibodies He Abs in which one of the H chains was introduced with an alteration were assayed for their binding activities to each activating FcγR and inhibitory FcγR according to the method described in Example 4. […] The activating FcγRs in FIGS. 26, 27, 28, and 29 are FcγRIa, FcγRIIa (R), FcγRIIa (H), and FcγRIIIa, respectively.
(§2) Analysis of interaction between objective antibody and the FcγR was carried out using Biacore T100 (GE Healthcare). HBS-EP+ (GE Healthcare) was used as the running buffer, and the measurement temperature was set to 25° C. Chips produced by immobilizing the antigen peptide by the amine coupling method to a Series S Sencor Chip CM5 (GE Healthcare), or alternatively, chips produced by allowing preliminarily biotinylated antigen peptides to interact with and immobilize onto a Series S Sensor Chip SA (certified) (GE Healthcare) were used. Antibodies of interest were captured onto an antigen peptide-immobilized chip, and allowed to interact to each FcγR diluted with running buffer. To regenerate and repeatedly use the chip, the antibodies captured on the chip were washed off by reacting 10 mM glycine-HCl, pH 1.5.

He/Con_2b | Binder
235 % of GpH7-A5/GpH7-B3/GpL16-k0 (=100) | B1
193 % of GpH7-A5/GpH7-B3/GpL16-k0 (=100) | B2
199 % of GpH7-A5/GpH7-B3/GpL16-k0 (=100) | B3
80.6 % of GpH7-A5/GpH7-B3/GpL16-k0 (=100) | B4
80.8 % of GpH7-A5/GpH7-B3/GpL16-k0 (=100) | B5
114 % of GpH7-A5/GpH7-B3/GpL16-k0 (=100) | B6
45.1 % of GpH7-A5/GpH7-B3/GpL16-k0 (=100) | B7
84.7 % of GpH7-A5/GpH7-B3/GpL16-k0 (=100) | B8
160 % of GpH7-A5/GpH7-B3/GpL16-k0 (=100) | B9
111 % of GpH7-A5/GpH7-B3/GpL16-k0 (=100) | B10
141 % of GpH7-A5/GpH7-B3/GpL16-k0 (=100) | B11
105 % of GpH7-A5/GpH7-B3/GpL16-k0 (=100) | B12
149 % of GpH7-A5/GpH7-B3/GpL16-k0 (=100) | B13
102 % of GpH7-A5/GpH7-B3/GpL16-k0 (=100) | B14
110 % of GpH7-A5/GpH7-B3/GpL16-k0 (=100) | B15
99.8 % of GpH7-A5/GpH7-B3/GpL16-k0 (=100) | B16
95.7 % of GpH7-A5/GpH7-B3/GpL16-k0 (=100) | B17
99.2 % of GpH7-A5/GpH7-B3/GpL16-k0 (=100) | B18
114 % of GpH7-A5/GpH7-B3/GpL16-k0 (=100) | B19
116 % of GpH7-A5/GpH7-B3/GpL16-k0 (=100) | B20

Each binder was assayed against T2, FcγRIIIa extracellular domain with C-terminal His tag (human, UniProt P08637 17-208) in the same assay as above.
T2 construct: extracellular domain; also called FcgRIIIa; 3a; not shown: His tag attached to the C terminus
T2 sequence (P08637 17-208): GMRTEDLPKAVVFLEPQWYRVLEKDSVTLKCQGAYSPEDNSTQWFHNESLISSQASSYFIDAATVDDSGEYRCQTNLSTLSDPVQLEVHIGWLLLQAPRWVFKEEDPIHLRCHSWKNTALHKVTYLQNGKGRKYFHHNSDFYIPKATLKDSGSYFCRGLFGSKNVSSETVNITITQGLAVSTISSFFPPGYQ
Experimental: as §1, §2

He/Con_3a | Binder
37.4 % of GpH7-A5/GpH7-B3/GpL16-k0 (=100) | B1
68.3 % of GpH7-A5/GpH7-B3/GpL16-k0 (=100) | B2
47.8 % of GpH7-A5/GpH7-B3/GpL16-k0 (=100) | B3
54.3 % of GpH7-A5/GpH7-B3/GpL16-k0 (=100) | B4
49.7 % of GpH7-A5/GpH7-B3/GpL16-k0 (=100) | B5
81.9 % of GpH7-A5/GpH7-B3/GpL16-k0 (=100) | B6
31.7 % of GpH7-A5/GpH7-B3/GpL16-k0 (=100) | B7
67.5 % of GpH7-A5/GpH7-B3/GpL16-k0 (=100) | B8
84 % of GpH7-A5/GpH7-B3/GpL16-k0 (=100) | B9
78.6 % of GpH7-A5/GpH7-B3/GpL16-k0 (=100) | B10
75.3 % of GpH7-A5/GpH7-B3/GpL16-k0 (=100) | B11
81.1 % of GpH7-A5/GpH7-B3/GpL16-k0 (=100) | B12
71.7 % of GpH7-A5/GpH7-B3/GpL16-k0 (=100) | B13
74.8 % of GpH7-A5/GpH7-B3/GpL16-k0 (=100) | B14
77.3 % of GpH7-A5/GpH7-B3/GpL16-k0 (=100) | B15
74.1 % of GpH7-A5/GpH7-B3/GpL16-k0 (=100) | B16
72.1 % of GpH7-A5/GpH7-B3/GpL16-k0 (=100) | B17
73.4 % of GpH7-A5/GpH7-B3/GpL16-k0 (=100) | B18
66 % of GpH7-A5/GpH7-B3/GpL16-k0 (=100) | B19
75.1 % of GpH7-A5/GpH7-B3/GpL16-k0 (=100) | B20
